{
  "source": "paper PMC12527912",
  "key": {"[1]": {"biological_target": "lamin A peptide LA 572-588;histone octamer (H2A, H2B, H3, H4) (;Xenopus laevis) (UniProt P02545+P84233+P62799+P06897+P02281)", "test": "competition (TIRF)", "conditions": "EMSA: 150 mM NaCl, 20 mM HEPES pH 7.5, 1 mM DTT, 4 C, 1 h, 6% native PAGE; TIRF buffer not in the material"}, "[2]": {"biological_target": "lamin A tail LA 430-585;histone octamer (H2A, H2B, H3, H4) (Xenopus laevis) (UniProt P84233+P62799+P06897+P02281)", "test": "EMSA", "conditions": "0.05 uM Alexa 488 nucleosome; LA 3.1-400 uM; EMSA: 150 mM NaCl, 20 mM HEPES pH 7.5, 1 mM DTT, 4 C, 1 h, 6% native PAGE; TIRF buffer not in the material"}, "[3]": {"biological_target": "lamin A 430–585 C570A, labelled with CF660R (UniProt P02545)", "test": "fluorescence correlation spectroscopy (FCS); 500 pM CF660R-labelled LA 430–585 C570A, diffusion time against H2A–H2B concentration; 20 mM HEPES pH 8, 150 mM NaCl, 0.01% Tween20, 2 mM ascorbic acid and methyl viologen; one-to-one binding model"}, "[4]": {"biological_target": "H4K20C nucleosome labelled with Alexa Fluor 488 (Xenopus laevis)", "test": "native gel or EMSA; 4 °C; 150 mM NaCl, 20 mM HEPES pH 7.5, 1 mM DTT; 0.05 µM Alexa 488-labeled nucleosomes with 3.1 µM to 400 µM lamin fragment, 1 h; 6% native PAGE"}, "[5]": {"biological_target": "H4K20C nucleosome labelled with Alexa Fluor 488 (Xenopus laevis)", "test": "TIRF microscopy on micropatterned nucleosomes, competition; as a6 with 1 µM CF660R-labelled LA 430–585 and 0 to 1500 µM unlabelled peptide LA 572–588; ratio of lamin to nucleosome fluorescence fitted with a four-parameter dose–response Hill–Langmuir equation"}},
  "note": "pEC50, pIC50, pKd: −log10 of the molar value.",
  "data": [
    {"substance": "197 bp 601 nucleosome", "values": [
      {"measurement": "pIC50", "setting": "[1]", "value": 5.30},
      {"measurement": "pKd", "setting": "[2]", "value": 4.32}
    ]},
    {"substance": "H2A–H2B heterodimer (Xenopus laevis) (from UniProt P06897 11-120; P02281 1-126) (complex)", "values": [
      {"measurement": "pKd", "setting": "[3]", "value": 4.92}
    ]},
    {"substance": "lamin A 430–585, from the 6xHis-SUMO plasmid, tag cleaved (from UniProt P02545 430-585) (domain or fragment)", "values": [
      {"measurement": "pKd", "setting": "[4]", "value": 4.32}
    ]},
    {"substance": "synthetic peptide comprising amino acids 572–588 of lamin A", "values": [
      {"measurement": "pEC50", "setting": "[5]", "value": 5.30}
    ]}
  ]
}
